Laboratory results from US11396544 (dated 2022).
One block for each binder: values may come before it.

Key:
[1] = target: T1, human CD22 (cell surface) (human, UniProt P20273); assay: FACS, HEK293/hCD20/hCD22
[2] = target: T1, human CD22 (cell surface); assay: FACS, Raji/CD80 and CD86 negative
[3] = target: T1, human CD22 (cell surface); assay: FACS, Nalm6
[4] = target: human CD28 (cell surface) (human, UniProt P10747); assay: FACS, Jurkat
[5] = target: hCD28.mmH (human); assay: SPR, 25C

B1: REGN5838 (CD22 arm) (antibody, V domains shown)
VH: EVQLVESGGGLVQPGGSLKLSCAASGFTFSGSDMHWVRQASGKGLEWVGRIRNQPNSYATAYAASVKGRFTISRDDSKNTAHLQMNSLKTEDTAVYFCTRQKQVVYNYHHYYGMDVWGQGTTVTVSS
VL: not shown
EC50 [1]: 11.4 nM | EC50 [2]: 14.9 nM | EC50 [3]: 18 nM

B2: REGN5837 (CD22 arm) (antibody, V domains shown)
VH: EVQLVQSGAEVKKPGESLKISCKGSGYNFATYWIAWVRQMPGKGLELMGIIYPGDSETTYNPSFQGQVTISADKSISNAYLQWSSLKASDTAMYYCARVGGYCSGTSCHNWFDPWGLGTLVTVSS
VL: not shown
EC50 [2]: 9.76 nM | EC50 [3]: 13 nM

Results, then the binder that gave them:

EC50 [4]: 23 nM | Kd [5]: 404 nM
B3: REGN5838 (CD28 arm) (antibody, V domains shown)
VH: QVQLQESGPGLVKPSETLSLTCTVSGGSISSYYWSWIRQPPGKGLEWIGYIYYSGITHYNPSLKSRVTISVDTSKIQFSLKLSSVTAADTAVYYCARWGVRRDYYYYGMDVWGQGTTVTVSS
VL: not shown

EC50 [4]: 21 nM
B4: REGN5837 (CD28 arm) (antibody, V domains shown)
VH: B3 VH
VL: not shown
